Measurements from article PMC7406587, “Improving the production of AHL lactonase AiiO-AIO6 from Ochrobactrum sp. M231 in intracellular protease-deficient Bacillus subtilis” (AMB Express, 2020).

Substrate: CCCCCC(=O)CC(=O)N[C@H]1CCOC1=O
Assay: purified protein
Assay type: biochemical, Ochrobactrum sp. M231
Settings: PBS pH 7.0, 30 °C, 30 min, substrate range printed as 0.249 to 0.870 nM in methods, not consistent with Km in mmol/L, hydrolysis assay used 0.248 mM

B1: AiiO-AIO6 (Ochrobactrum sp. M231) (protein)
chain: MKSHEIETSHGRIAIRESRGNGTPLLMIHGNSSAGAIFAPQLEGEIGRNWRVIAPDLPGHGQSGNALDPDRSYSMEGYADVMTEVLAKLGISDAVVFGWSLGGHIGIEMISRFPGMRGLMITGTPPVAREEVGQGFRSGPDMALAGQEAFSDRDVESYARSTCGEPFEEQLLEIVARTDGRARRIMFEKFAAGTGGNQRDIVAEARLPIAVVNGRDEPFVELDFVSKVRFGNLWEGRTHVIDGAGHAPFRETPAIFDDYLQRFMRDCTA
notes: purified recombinant; expressed from pWB-AIO6BS in Bacillus subtilis 1A751 or protease-deletion derivatives (non-classical secretion, no signal peptide); His tag implied by anti-His Western blot; catalytic triad Ser100, Glu214, His246
B1 was tested, and the Km was 0.4151 mmol/L and the kcat was 9.34 S^-1.
